Patent US20230399400A1 (I MAB BIOPHARMA, published 2023)

Tests used:
[1] = molecular target: T1, biotinylated CD47 IgV protein (Acrobiosystems) (human, UniProt Q08722 19-139, biotinylated (site not stated)); assay: ELISA, biotinylated CD47 protein (monomeric CD47-ECD) coated at 1 µg/mL, antibody titration
T1 construct: domain: IgV; Bought from Acrobiosystems; also called biotinylated human CD47-IgV domain; Biotinylated CD47 protein
Experimental: Biotinylated CD47 protein (Acrobiosystems) was coated at 1 μg/mL in PBS onto microtiter plates for 2 hours at RT. After coating of antigen, the wells were blocked with PBS/0.05% Tween (PBST) with 1% BSA for 1 hour at RT. After washing of the wells with PBST, different concentrations of anti-CD47 antibodies were added to the wells and incubated for 1 hour at RT. For detection of the binding of the antibodies to CD47, the HRP conjugated secondary antibodies against human Fc (Jackson Immuno Research) were added followed by the addition of fluorogenic substrates (Roche). Between all incubation steps, the wells of the plate were washed with PBST three times. Fluorescence was measured in a TECAN Spectrafluor plate reader.

[2] = molecular target: T2, human CD47 (hCD47) expressed on the surface of cells (human, UniProt Q08722 19-323); assay: Flow cytometry on Raji cells endogenously expressing human CD47
T2 construct: whole, on cells; also called CD47+ Raji cells; CD47 on tumor cell lines
Experimental: Raji cells, which endogenously express human CD47 on the surface, were stained with different concentrations of anti-CD47 antibodies at 4° C. for 30 minutes. Then, the cells were washed with PBS three times, followed by incubation with APC-labeled anti-human Fc specific antibody (Invitrogen) at 4° C. for 30 minutes. Binding was measured using a FACSCanto (Becton-Dickinson).

[3] = molecular target: T3, Recombinant human CD47 IgV-Fc fusion protein (Acrobiosystems) (human, UniProt Q08722 19-139); assay: Competition ELISA: CD47-Fc coated, SIRPα-His 1 µg/mL as the blocked ligand, antibody titration
T3 construct: domain: IgV; Bought from Acrobiosystems; also called hCD47 IgV-Fc fusion protein; Recombinant CD47-Fc fusion protein
Experimental: Recombinant CD47-Fc fusion protein (Acrobiosystems) was coated at 1 μg/ml in PBS onto microtiter plates for 16 hours at 4° C. […] Plates were subsequently washed three times and incubated with an HRP-conjugated anti-His secondary antibody for 1 hour at RT. After washing, the TMB solution was added to each well for 30 min and the reaction was stopped with 2M H₂SO₄, and OD was measured at […].

B1: reference anti-CD47 antibody 2A1 (antibody, V domains shown)
VH: EVQLQQSGAELVRSGASVKLSCTASGFNIKDYYLHWVKQRPEQGLEWIGWIDPDNGDTEFAPKFQGKATMTADTSSNTAYLQLSSLTSEDTAVYYCNAAYGSSSYPMDYWGQGTSVTV
VL: DIKMTQSPSSLYASLGERVTITCKASQDIHRYLSWFQQKPGKSPKILIYRANRLVDGVPSRFSGSGSGQDYSLTISSLEYEDMGIYYCLQYDEFPYTFGGGTKLEMK
- EC50 [1]: 0.25 nM

B2: anti-CD47 antibody B2B (antibody, human IgG4 S228P, kappa, V domains shown)
VH: EVQLVESGGGLVKPGGSLRLSCAASGLTFERAWMNWVRQAPGKGLEWVGRIKRKTDGETTDYAAPVKGRFSISRDDSKNTLYLQMNSLKTEDTAVYYCAGSNRAFDIWGQGTMVTVSS
VL: DIVMTQSPDSLAVSLGERATINCKSSQSVLYAGNNRNYLAWYQQKPGQPPKLLINQASTRASGVPDRFSGSGSGTEFTLIISSLQAEDVAIYYCQQYYTPPLAFGGGTKLEIKR
notes: also called lemzoparlimab; TJ011133
- EC50 [2]: 0.12 nM
- EC50 [1]: 0.09 nM
- EC50 [3]: 0.18 nM
